Test results taken from article doi:10.1101/209643 (bioRxiv, 2017).

Biological target: the molecule itself
Assay: TIRF microscopy of filament polymerisation

B1: Double mutant septin complex (Cdc10, Cdc3, Cdc12 T75A, Cdc11 D65T-GFP) (complex)
chain 1: MSAATATAAPVPPPVGISNLPNQRYKIVNEEGGTFTVMLCGESGLGKTTFINTLFQTVLKRADGQQHRQEPIRKAVEIDITRALLEEKHFELRVNVIDTPGFGDNVNNNKAWQPLVDFIDDQHDSYMRQEQQPYRTKKFDLRVHAVLYFIRPTGHGLKPIDIETMKRLSTRANLIPVIAKADTLTAQELQQFKSRIRQVIEAQEIRIFTPPLDADSKEDAKSGSNPDSAAVEHARQLIEAMPFAIVGSEKKFDNGQGTQVVARKYPWGLVEIENDSHCDFRKLRALLLRTYLLDLISTTQEMHYETYRRLRLEGHENTGEGNEDFTLPAIAPARKLSHNPRYKEEENALKKYFTDQVKAEEQRFRQWEQNIVNERIRLNGDLEEIQGKVKKLEEQVKSLQVKKSHLK
chain 2: MDPLSSVQPASYVGFDTITNQIEHRLLKKGFQFNIMVVGQSGLGKSTLINTLFASHLIDSATGDDISALPVTKTTEMKISTHTLVEDRVRLNINVIDTPGFGDFIDNSKAWEPIVKYIKEQHSQYLRKELTAQRERFITDTRVHAILYFLQPNGKELSRLDVEALKRLTEIANVIPVIGKSDTLTLDERTEFRELIQNEFEKYNFKIYPYDSEELTDEELELNRSVRSIIPFAVVGSENEIEINGETFRGRKTRWSAINVEDINQCDFVYLREFLIRTHLQDLIETTSYIHYEGFRARQLIALKENANSRSSAHMSSNAIQR
chain 3: MSLKEEQVSIKQDPEQEERQHDQFNDVQIKQESQDHDGVDSQYTNGTQNDDSERFEAAESDVKVEPGLGMGITSSQSEKGQVLPDQPEIKFIRRQINGYVGFANLPKQWHRRSIKNGFSFNLLCVGPDGIGKTTLMKTLFNNDDIEANLVKDYEEELANDQEEEEGQGEGHENQSQEQRHKVKIKSYESVIEENGVKLNLNVIDTEGFGDFLNNDQKSWDPIIKEIDSRFDQYLDAENKINRHSINDKRIHACLYFIEPTGHYLKPLDLKFMQSVYEKCNLIPVIAKSDILTDEEILSFKKTIMNQLIQSNIELFKPPIYSNDDAENSHLSERLFSSLPYAVIGSNDIVENYSGNQVRGRSYPWGVIEVDNDNHSDFNLLKNLLIKQFMEELKERTSKILYENYRSSKLAKLGIKQDNSVFKEFDPISKQQEEKTLHEAKLAKLEIEMKTVFQQKVSEKEKKLQKSETELFARHKEMKEKLTKQLKALEDKKKQLELSINSASPNVNHSPVPTKKKGFLR
chain 4: MSGIIDASSALRKRKHLKRGITFTVMIVGQSGSGRSTFINTLCGQQVVDTSTTILLPTDTSTEITLQLREETVELEDDEGVKIQLNIIDTPGFGDSLDNSPSFEIISDYIRHQYDEILLEESRVRRNPRFKDGRVHCCLYLINPTGHGLKEIDVEFIRQLGSLVNIIPVISKSDSLTRDELKLNKKLIMEDIDRWNLPIYNFPFDEDEISDEDYETNMYLRTLLPFAIIGSNEVYEMGGDVGTIRGRKYPWGILDVEDSSISDFVILRNALLISHLHDLKNYTHEILYERYRTEALSGESVAAESIRPNLTKLNGSSSSSTTTRRNTNPFKQSNNINNDVLNPASDMHGQSTGENNETYMTREEQIRLEEERLKAFEERVQQELLLKRQELLQREKELREIEARLEKEAKIKQEE
**Q.** Does B1 bind?
**A.** binds
